Source: the DeepSol protein solubility set

Assay: soluble on expression in E. coli; label from the status in PepcDB or PDB records

Q: With “GPHMSVSESAVFAYESSVHSTNVLLSLNDQRKKDVLCDVTVLVEGQRFRAHRSVLAACSSYFHSRIVGQTDAELTVTLPEEVTVKGFEPLIQFAYTAKLILSKDNVDEVCRCVEFLSVHNIEESCFQFLKFKFLDSTS” as the sequence, how does the “soluble on expression in E. coli” value read?
A: Its value is “soluble”.

Q: With “GPLGSAGKSSLFKIILLGDGGVGKSSLMNRYVTNKFDSQLFHTIGVEFLNKDLEVDGHFVTMQIWDTAGQERFRSLRTPFYRGSDCCLLTFSVDDSQSFQNLSNWKKEFIYYADVKEPESFPFVILGNKTDIKERQVSTEEAQAWCKDNGDYPYFETSAKDSTNVAAAFEEAVRRILAT” as the sequence, how does the “soluble on expression in E. coli” value read?
A: The value was “soluble”.

Q: Which “soluble on expression in E. coli” value does the source give for “GPLGSETITVPTPIKQIFSDDAFAETIKDNLKKKSVTDAVTQNELNSIDQIIANNSDIKSVQGIQYLPNVTKLFLNGNKLTDIKPLANLKNLGWLFLDENKVKDLSSLKDLKKLKSLSLEHNGISDINGLVHLPQLESLYLGNNKITDITVLSRLTKLDTLSLEDNQISDIVPLAGLTKLQNLYLSKNHISDLRALAGLKNLDVLELFSQECLNKPINHQSNLVVPNTVKNTDGSLVTPEIISDDGDYEKPNVKWHLPEFTNEVSFIFYQPVTIGKAKARFHGRVTQPLKE” here?
A: The value was “soluble”.

Q: Which “soluble on expression in E. coli” value does the source give for “GPLGSGALKWVLCNYDFQARNSSELSVKQRDVLEVLDDSRKWWKVRDPAGQEGYVPYNILTPYPAAAS” here?
A: The value was “soluble”.

Q: With “GPLGSMSVAGLKKQFHKATQKVSEKVGGAEGTKLDDDFKEMERKVDVTSRAVMEIMTKTIEYLAHLSSLLQAEALLAEAMLKFGRELGDDCNFGPALGEVGEAMRELSEVKDSLDIEVKQNFIDPLQNLHDKDLREIQHHLKKLEGRRLDFDYKKKRQGKIPDEELRQALEKFDESKEIAESSMFNLLEMDIEQVSQLSALVQAQLEYHKQAVQILQQVTVRLEERIRQA” as the sequence, how does the “soluble on expression in E. coli” value read?
A: Its value is “soluble”.

Q: Which “soluble on expression in E. coli” value does the source give for “GPMRRERGRQGDSSSCERQVDRVNLKPCEQHIMQRIMGEQEQYDSYDIRSTRSSDQQQRCCDELNEMENTQGCMCEALQQIMENQCDRLQDRQMVQQFKRELMSLPQQCNFRAPQRCDLDVSGGRCS” here?
A: Its value is “soluble”.

Q: With “GPVDPVKTFSEVLAAVEDRTISKELLDEKCRKILAFKYALIICKGISKELPAEEVVRQVNSREAERMSEDLWQASITILKNKKHFLPLSEGNRIACVNLDGAASNTFTQELGLTSKDCYSYAKGSNSTRTQELLSKLKGYDAVIVTVRHTQPDWAGTFLHRLTEQNHTAIVFFTSPYVADRIPAAMDKARAIVVAYENVKEAARMAAYKIRDRVVVSSGGGIPVVQEEEDTDPTANMMPPTELSSGLIPMPA” as the sequence, how does the “soluble on expression in E. coli” value read?
A: The value was “not soluble”.

Q: For “GPVKLRLTVLCAKNLVKKDFFRLPDPFAKVVVDGSGQCHSTDTVKNTLDPKWNQHYDLYIGKSDSVTISVWNHKKIHKKQGAGFLGCVRLLSNAINRLKDTGYQRLDLCKLGPNDNDTVRGQIVVSLQSRD”, which “soluble on expression in E. coli” value is on record?
A: The value was “soluble”.

Q: With “GQLDDVLMPYVGDQTEAQIYKKLRHFWIMLDRTLPDAFMHVNIGPTDNIICRTILRVDAELKQIAPNLTFMYDESITPDDLLRQATKNICDCSKPHIANYPIHANAYDGERFGIVSCYNSLPLAGGSNTLVRMNLKEVAKRAASRDDFFSNVLPTYHQLMTELMDARSSHLHEQSQFFQGFLTQEGLIEESRFAPMYGIYGMAEAVNLLLEKEGQTSRYGQDERANALGHEISASLATLVDSTPVRYGLEGKALLHAQGGISLDLDVTPGVRLPYGNEPDPVTYVQATAAHHQYYRAGISDILTIDETVKSNPEAMFNLCKGALNAGYREFTANVASNDLVRVTGYMVKLSDIAKYDAEGSRTNTTFLGAEAAKNTGILERSPRVVSQEMSPVYK” as the sequence, how does the “soluble on expression in E. coli” value read?
A: Its value is “not soluble”.

Q: Which “soluble on expression in E. coli” value does the source give for “GQQKNMENKTLNENIPEMIISLEKEALASTDPMAFVELSDTDVIYFDPSLETKIEGLEQLRTYYKGMQLPPADHFDMIRPVVQVAQNIAVLTFNLDSYLSDKVIKWNCTEVYRRNPDNQWKIIQTHWSYVKPLD” here?
A: Its value is “soluble”.

Q: For “GRTVVVTTIMESPYVMYKKNHEMFEGNDKYEGYCVDLASEIAKHIGIKYKIAIVPDGKYGARDADTKIWNGMVGELVYGKAEIAIAPLTITLVREEVIDFSKPFMSLGISIMIKKGTPIESAEDLAKQTEIAYGTLDSGSTKEFFRRSKIAVYEKMWTYMRSAEPSVFTRTTAEGVARVRKSKGKFAFLLESTMNEYIEQRKPCDTMKVGGNLDSKGYGVATPKGSSLRTPVNLAVLKLSEAGVLDKLKNKWWYDKGECG”, which “soluble on expression in E. coli” value is on record?
A: Its value is “soluble”.
